Target: HLA-A*02 molecules at the surface of T1 cells (human (endogenous in T1 cells))
Experiment: flow cytometry on cells; T1 cells pulsed with 20 µM NY_(157-165) peptide (three pulses, stability control; or freshly for 2 h, day control); HLA-A*02/NY_(157-165) complexes detected with a complex-specific F(ab) and a PE-conjugated second antibody 24, 48 and 96 h after the last loading

percent of the complexes of freshly peptide-pulsed T1 cells still detected: 64%
Substance: NY-ESO-1_(157-165) peptide (from UniProt P78358 157-165)

Reference: publication PMC3688974
